From US20050250690A1

Target: OB-R (leptin receptor) expressed by rabbit endometrial cells (rEEC and rESC) (rabbit)
Test: competition with 125I-human leptin for OB-R in rabbit endometrial cell lysates (rEEC and rESC), PEG precipitation

Ki: 0.06 nM
Binder: SRNVIQISNDLENLRDLLHVLAFSKS [LPA-2 (leptin peptide antagonist 2; residues 70-95 of helix III of the human leptin molecule)]
